This note sets out measurements from US6835382B2, “Ii peptide therapeutics to enhance antigen presentation” (University of Massachusetts, priority 1996, dated 2004).

Non-standard residues stand in square brackets, D forms with d. Hyp = O=C(O)[C@@H]1C[C@@H](O)CN1

The subject of test [1] is HLA-DR1 molecules. Briefly: release of biotin-labeled hMBP(90-102) from HLA-DR1 without unlabeled antigenic peptide (assay I). The format is binding, human. Conditions: for release of biotin-labeled hMBP(90-102) from HLA-DR1 without second unlabeled antigenic peptide, in words: Table 36 (compounds tested at 64 μM); for Relative Release: Table 36, AE101 series compound 64 μM, fraction of o.d. of positive control (PBS only = 1.0; negative control = 0.0).

The subject of test [2] is HLA-DR1 molecules. Briefly: exchange of biotinylated hMBP(90-102) into antigenic peptide-loaded HLA-DR1 (assay III). It is filed as binding, human. Particulars: Table 38; HLA-DR1 preloaded with unlabeled hMBP(90-102) 50 μM; exchange with biotin-labeled hMBP(90-102) 50 μM, 37° C., 1 h; fraction of positive control o.d.; no enhancement = 0.08.
Test [3] has as its target T1, HLA-DR1 molecules (Homo sapiens, UniProt P01903+P01911, A100R/D57E/F55L/F60I/F76Y/I96L/L162R/M171V/P40L/Q125E/R42F/V115G/Y59C).
T1 construct: The HLA-DR alpha gene was truncated after Asn^192 to remove transmembranal and cytoplasmic regions from the protein product; A gene coding for the HLA-DR1 beta chain was truncated after position Lys^198, again to delete the transmembranal region; made in house; host or cells: insect cell line printed as HS / H5 (Invitrogen), co-infected with two baculoviruses; concentrated culture supernatant captured on 12CA5 antibody
Briefly: binding of biotin-labeled hMBP(90-102) to "empty" HLA-DR1 (assay IV). Conditions: Table 39; AE101 series compound 64 μM; biotin-labeled hMBP(90-102) 50 μM, 37° C., 1 h; no enhancement = 1.

The subject of test [4] is murine E^k MHC class II allele. Briefly: simultaneous assay, E^k allele (CH27 APC, TPc9.1 T hybridoma, THMCC82-103 or PGCC81-104). The format is cell-based. In a few lines: (§1)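 Read-out is [3H]TdR incorporation into HT-2 indicator cells exposed to supernatant from a 24 h primary culture. That culture combined mitomycin C-treated APC (5×10^6 cells/mL, 0.025 mg/mL mitomycin C, 20 min, 37° C), peptide, effector compound and T hybridoma, all added at once.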

Test [5] deals with T2, murine E^d MHC class II allele (Mus musculus, UniProt P01904+P01915).
T2 sequence (P01904 26-255): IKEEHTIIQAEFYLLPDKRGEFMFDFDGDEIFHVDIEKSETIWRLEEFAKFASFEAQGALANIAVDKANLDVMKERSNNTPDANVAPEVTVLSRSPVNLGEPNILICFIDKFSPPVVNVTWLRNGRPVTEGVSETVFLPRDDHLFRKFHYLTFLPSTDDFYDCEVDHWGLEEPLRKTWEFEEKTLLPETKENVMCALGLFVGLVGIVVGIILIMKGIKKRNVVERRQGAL
T2 sequence (P01915 27-264 limits assumed): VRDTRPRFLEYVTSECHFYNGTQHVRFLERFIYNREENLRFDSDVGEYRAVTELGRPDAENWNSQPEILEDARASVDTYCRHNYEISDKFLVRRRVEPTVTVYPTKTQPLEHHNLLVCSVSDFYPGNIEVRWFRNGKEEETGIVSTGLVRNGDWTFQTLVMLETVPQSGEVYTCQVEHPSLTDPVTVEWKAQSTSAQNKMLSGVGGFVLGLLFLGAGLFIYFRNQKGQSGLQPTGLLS
Briefly: simultaneous assay, E^d allele (A20 APC, G28.C9 T hybridoma, HEL106-116; HT-2 [3H]TdR readout). The format is cell-based. Further details: The A20 and CH27 B cell lymphoma lines express H-2^d and H-2^k alleles, respectively; endogenous in cells; host or cells: A20 B cell lymphoma (mitomycin C-treated or paraformaldehyde-fixed). The gist of the method: as §1

Test [6] deals with T2, murine E^d MHC class II allele. Briefly: AE101 series peptide prepulse assay, E^d allele. The format is cell-based. Conditions: Table 35; AE101 series peptide prepulse 64 μM; antigenic peptide 0.3 μM; supernatant dilution 1:4. Here is the method: (§2) Table 35: Activities of multiple substitution analogs of AE235, targeting the E^k and E^d allele, in an AE101 series peptide prepulse assay. In this assay the concentration of AE101 series peptides used during the prepulse was 64 μM. The concentrations of antigenic peptides were 0.3 μM for Ed and 0.4 μM for E^k. The supernatant dilutions taken into the HT-2 cell assay was 1:4 for E and 1:2 for E^k. The AE381 peptide is a head-to-tail cyclization: the amino terminal amino group is coupled through an amide linkage to the carboxyl terminal group. The AE 382 peptide is a side-to-tail cyclization: the epsilon amino group of Lys^4 is coupled through an amide linkage to the carboxyl terminal group.
(§3) AE101 series peptide prepulse assays were carried out in the E^d and E^k systems as described for simultaneous competition assays with the following modifications. Fixed APC were first incubated for 6 h at 1×10^6DMEM-5% FCS with 64 μM of each AE101 series peptide or with PBS. The APC were then washed four times with ten volumes of DMEM-5% FCS, and were cocultured with T hybridoma cells and the indicated submaximal doses of antigenic peptides used in the simultaneous competition assays. The baseline T cell response was measured by culturing T hybridoma cells with antigenic peptide and PBS-pretreated APC.

The subject of test [7] is murine E^k MHC class II allele. Briefly: AE101 series peptide prepulse assay, E^k allele. Conditions: Table 35; AE101 series peptide prepulse 64 μM; antigenic peptide 0.4 μM; supernatant dilution 1:2. It is filed as cell-based. Here is the method: as §2, §3
In test [8] the target is soluble HLA-DR1 (HLA-DR alpha truncated after Asn192 with a C-terminal nine amino acid HA epitope tail; HLA-DR1 beta truncated after Lys198), made in Baculovirus-infected insect cells (human). Briefly: release ELISA as Table 36 (biotin-hMBP(90-102) left on tethered HLA-DR1); AE peptide 1 uM, without unlabeled hMBP(90-102). On the technique in general: An ELISA detects its analyte on a solid surface through an enzyme-linked reagent.

The target is the same in test [9]. Briefly: release ELISA as Table 36 (biotin-hMBP(90-102) left on tethered HLA-DR1); AE peptide 64 uM, without unlabeled hMBP(90-102).
Test [10] has the same target. Briefly: release ELISA as Table 36 (biotin-hMBP(90-102) left on tethered HLA-DR1); AE peptide 1 uM, with unlabeled hMBP(90-102) 250 uM.
Test [11] shares this target. Briefly: release ELISA as Table 36 (biotin-hMBP(90-102) left on tethered HLA-DR1); AE peptide 64 uM, with unlabeled hMBP(90-102) 250 uM.
For test [12] the target is unchanged. Briefly: loading ELISA: empty tethered HLA-DR1 with biotin-hMBP(90-102) 50 uM and AE peptide 64 uM, 1 h 37 C; biotin bound read by avidin-HRP.
Test [13] shares this target. Briefly: exchange ELISA: tethered HLA-DR1 preloaded with unlabeled hMBP(90-102) 50 uM, washed; AE peptide plus biotin-hMBP(90-102) 50 uM, 1 h 37 C; biotin bound as fraction of positive control (overnight loading).
Test [14] shares this target. Briefly: release ELISA: soluble HLA-DR1 tethered by 12CA5 and preloaded with biotin-hMBP(90-102); AE peptide 64 uM, 1 h 37 C, no unlabeled peptide; biotin still bound read by avidin-HRP (1.0 = PBS control, 0.0 = no DR1; low value = released).

Take “AE405: comprising residue positions 5 through 12 of AE101 (LPKSAKPV)”: in the test with HLA-DR1 molecules [1], the “release of biotin-labeled hMBP(90-102) from HLA-DR1 without second unlabeled antigenic peptide, in words” value is “sufficient to release antigenic peptide” and the “Relative Release” value is 0.11. For the same molecule, in the test on HLA-DR1 molecules [2], the “Relative Binding” value is reported as 0.57. For the same molecule, the “Relative Enhancement” value in the test with HLA-DR1 molecules [3] is reported as 0.43.
In the case of YRMKLPKSAKPV [AE107], the “Times Baseline Response, E^k” value was determined as 0.8 in test [4] (Table 1, AE peptide 16 μM (second value), 0.075 μM THMCC82-103, supernatant 1:2) and 1.0 in test [4] (Table 1, AE peptide 64 μM (first value), 0.075 μM THMCC82-103, supernatant 1:2). The “release of hMBP(90-102) from HLA-DR1” value with HLA-DR1 molecules [1] (AE peptide at 125 nM, additional experiments) was “completely release”. Besides, the “release of biotin-labeled hMBP(90-102) from HLA-DR1 without second unlabeled antigenic peptide, in words” value with HLA-DR1 molecules [1] is listed as “released”. Moreover, the “Relative Release” value in the test with HLA-DR1 molecules [1] is given as −0.07. Moreover, the “Relative Binding” value with HLA-DR1 molecules [2] was found to be 1.04. For the same molecule, in the test with HLA-DR1 molecules [3], the “Relative Enhancement” value amounted to 2.59. The “Times Baseline Response, E^d” value worked out at 4.8 in test [5] (Table 1, AE peptide 16 μM (second value), 0.4 μM HEL106-116, supernatant 1:4) and 21.7 in test [5] (Table 1, AE peptide 64 μM (first value), 0.4 μM HEL106-116, supernatant 1:4).
Take AE100 (YRMKLPKPPKPVSKMR): the “Relative Release” value with HLA-DR1 molecules [1] came out at 0.37. Also, in the test with HLA-DR1 molecules [2], the “Relative Binding” value came to 0.31. For the same molecule, the “Relative Enhancement” value with HLA-DR1 molecules [3] amounted to 3.44.
For the molecule Ac-LRMKlpk-NH2 [AE172], the “Times Baseline Response, E^k” value in test [4] (Table 12, AE peptide 1 μM (fourth value), supernatant 1:4) is listed as 2.8; in test [4] (Table 12, AE peptide 4 μM (third value), supernatant 1:4) it was 4.2; in [4] (Table 12, AE peptide 16 μM (second value), supernatant 1:4), 21.1; in test [4] (Table 12, AE peptide 64 μM (first value), supernatant 1:4) it was 46.2. The “T cell response relative to baseline with PBS-pretreated APC (NONE = 1.0), E^d” value in test [6] was found to be 1.1. For the same molecule, the “T cell response relative to baseline with PBS-pretreated APC (NONE = 1.0), E^k” value in test [7] amounted to 2.1. In addition, the “Times Baseline Response, E^d” value in test [5] (Table 12, AE peptide 1 μM (fourth value), supernatant 1:2) came out at 2; in test [5] (Table 12, AE peptide 4 μM (third value), supernatant 1:2), 2; in test [5] (Table 12, AE peptide 16 μM (second value), supernatant 1:2), 7; in [5] (Table 12, AE peptide 64 μM (first value), supernatant 1:2), 54.

B1: AE381 (peptide)
peptide: LRMKLPK
modifications: head-to-tail cyclization: the amino terminal amino group is coupled through an amide linkage to the carboxyl terminal group
Turning to B1, the Relative Release (fraction of positive control o.d.) in test [8] was 0.64; in test [9], 0.5; in test [10] it was 0.09; in [11], -0.19. Further, the Relative Enhancement (of biotin-hMBP(90-102) binding to empty HLA-DR1) (relative to no AE peptide = 1) in [12] turned out to be 1.84. Besides, the Relative Binding (of biotin-hMBP(90-102) to HLA-DR1) (fraction of positive control o.d.) in [13] is -0.12.
For the molecule Ac-LRLKLPK-NH2 [AE206], the Relative Release (fraction of positive control o.d.) was 0.58 in test [8], 0.08 in [9], 0.03 in [10] and -0.29 in [11]. Also, the Relative Enhancement (of biotin-hMBP(90-102) binding to empty HLA-DR1) (relative to no AE peptide = 1) in [12] was determined as 2.57. In test [13], the Relative Binding (of biotin-hMBP(90-102) to HLA-DR1) (fraction of positive control o.d.) was -0.13.
For the molecule Ac-LRMKYPK-NH2 [AE235], the Relative Release (fraction of positive control o.d.) was determined as 1.05 in test [8]; 0.81 in [9]; 0.48 in test [10]; 0.6 in test [11]; 0.79 in test [14]. The Relative Enhancement (of biotin-hMBP(90-102) binding to empty HLA-DR1) (relative to no AE peptide = 1) in test [12] worked out at 0.61. Further, the Relative Binding (of biotin-hMBP(90-102) to HLA-DR1) (fraction of positive control o.d.) in test [13] stood at 0.15.

B2: AE143 (peptide)
peptide: Ac-YRMKL[Hyp]KSAK-NH2
SMILES: CSCC[C@H](NC(=O)[C@H](CCCNC(=N)N)NC(=O)[C@H](Cc1ccc(O)cc1)NC(C)=O)C(=O)N[C@@H](CCCCN)C(=O)N[C@@H](CC(C)C)C(=O)N1C[C@H](O)C[C@H]1C(=O)N[C@@H](CCCCN)C(=O)N[C@@H](CO)C(=O)N[C@@H](C)C(=O)N[C@@H](CCCCN)C(N)=O
B2: the Relative Release (fraction of positive control o.d.) came out at 0.51 in test [8], 0.58 in test [9], 0.35 in test [10] and 0.21 in test [11].
Consider YRMKLPKSAK [AE108], for which the Relative Release (fraction of positive control o.d.) in test [8] came to 0.52; in test [9], 0.31; in [10] it was 0; in test [11], 0.14; in [14], 1.14.
